The target in assay [1] is alpha-fetoprotein receptor (human (endogenous in tumor cell lines)). The assay can be described thus: plate-reader fluorescence of labeled protein bound to and internalized by cells; 0.5 µM F-ACT-101 (Alexa Fluor 647) with tumor cells at 37 °C for 0.5, 2 and 5 h, stopped on ice, cells washed, sonicated with DMSO, fluorescence read; background subtracted; binding/internalization as ng per million cells; n = 3.

Assay [2] has the same target. The assay is described as follows: flow cytometry on cells; COLO-205 or U937 cells, F-ACT-101 (Alexa Fluor 488) at 1, 3, 10, 30 and 100 µg/mL in cold PBS for 1 h on ice; percent of cells positive. A general note: In flow cytometry, cells or beads pass a laser one at a time.

B1: Fluorescently labeled ACT-101 (Alexa Fluor 647) (ligand)
chain: RTLHRNEYGIASILDSYQCTAEISLADLATIFFAQFVQEATYKEVSKMVKDALTAIEKPTGDEQSSGCLENQLPAFLEELCHEKEILEKYGHSDCCSQSEEGRHNCFLAHKKPTPASIPLFQVPEPVTSCEAYEEDRETFMNKFIYEIARRHPFLYAPTILLWAARYDKIIPSCCKAENAVECFQTKAATVTKELRESSLLNQHACAVMKNFGTRTFQAITVTKLSQKFTKVQFTEIQKLVLDVAHVHEHCCRGDVLDCLQDGEKIMSYICSQQDTLSNKITECCKLTTLERGQCIIHAENDEKPEGLSPNLNRFLGDRDFNQFSSGEKNIFLASFVHEYSRRHPQLAVSVILRVAKGYQELLEKCFQTENPLECQDKGEEELQKYIQESQALAKRSCGLFQKLGEYYLQNAFLVAYTKKAPQLTSSELMAITRKMAATAATCCQLSEDKLLACGEGAADIIIGHLCIRHEMTPVNPGVGQCCTSSYANRRPCFSSLVVDETYVPPAFSDDKFIFHKDLCQAQGVALQTMKQEFLINLVKQKPQITEEQLEAVIADFSGLLEKCCQGQEQEVCFAEEGQKLISKTRAALGV
modifications: Alexa Fluor 647 label (protein labeling kit); sites not stated
Regarding B1, in assay [1], the ng F-ACT-101 per million cells (COLO-205, 0.5 h) (ng/million cells) is 6.9; the ng F-ACT-101 per million cells (COLO-205, 2 h) (ng/million cells) worked out at 33.6; the ng F-ACT-101 per million cells (COLO-205, 5 h) (ng/million cells) stood at 75; the ng F-ACT-101 per million cells (H522, 0.5 h) (ng/million cells) stood at 55.6. Besides, in assay [1], the ng F-ACT-101 per million cells (H522, 2 h) (ng/million cells) turned out to be 27.1; the ng F-ACT-101 per million cells (H522, 5 h) (ng/million cells) is 71.3; the ng F-ACT-101 per million cells (MCF-7, 0.5 h) (ng/million cells) was found to be 51; the ng F-ACT-101 per million cells (MCF-7, 2 h) (ng/million cells) is 53.6. Also, in assay [1], the ng F-ACT-101 per million cells (MCF-7, 5 h) (ng/million cells) turned out to be 126; the ng F-ACT-101 per million cells (OVCAR-3, 0.5 h) (ng/million cells) was 67; the ng F-ACT-101 per million cells (OVCAR-3, 2 h) (ng/million cells) was 21.2; the ng F-ACT-101 per million cells (OVCAR-3, 5 h) (ng/million cells) worked out at 71. In addition, in assay [1], the ng F-ACT-101 per million cells (SKOV-3, 0.5 h) (ng/million cells) was 31.3; the ng F-ACT-101 per million cells (SKOV-3, 2 h) (ng/million cells) came to 9.2; the ng F-ACT-101 per million cells (SKOV-3, 5 h) (ng/million cells) came out at 16; the ng F-ACT-101 per million cells (U937, 0.5 h) (ng/million cells) was found to be 29.5. In assay [1], this molecule returned a ng F-ACT-101 per million cells (U937, 2 h) (ng/million cells) of 67.1 and a ng F-ACT-101 per million cells (U937, 5 h) (ng/million cells) of 84.3.

B2: Fluorescently labeled ACT-101 (Alexa Fluor 488) (ligand)
chain: B1 chain
modifications: Alexa Fluor 488 label (microscale protein labeling kit); sites not stated
With B2, in assay [2], the percent of cells positive for binding (COLO-205, at 100 µg/mL) is 90% and the percent of cells positive for binding (U937, at 100 µg/mL) was 90%.

These data come from paper PMC10074858.
